Reference: paper PMC10786891, “Massively parallel profiling of RNA-targeting CRISPR-Cas13d”
Numbering of substitutions follows the chain as printed. In names and notes the source's numbering stands.

T1: EsCas13d, nuclease-dead (Eubacterium siraeum, UniProt B0MS50, R295A;H300A;R849A;H854A)
T1 sequence: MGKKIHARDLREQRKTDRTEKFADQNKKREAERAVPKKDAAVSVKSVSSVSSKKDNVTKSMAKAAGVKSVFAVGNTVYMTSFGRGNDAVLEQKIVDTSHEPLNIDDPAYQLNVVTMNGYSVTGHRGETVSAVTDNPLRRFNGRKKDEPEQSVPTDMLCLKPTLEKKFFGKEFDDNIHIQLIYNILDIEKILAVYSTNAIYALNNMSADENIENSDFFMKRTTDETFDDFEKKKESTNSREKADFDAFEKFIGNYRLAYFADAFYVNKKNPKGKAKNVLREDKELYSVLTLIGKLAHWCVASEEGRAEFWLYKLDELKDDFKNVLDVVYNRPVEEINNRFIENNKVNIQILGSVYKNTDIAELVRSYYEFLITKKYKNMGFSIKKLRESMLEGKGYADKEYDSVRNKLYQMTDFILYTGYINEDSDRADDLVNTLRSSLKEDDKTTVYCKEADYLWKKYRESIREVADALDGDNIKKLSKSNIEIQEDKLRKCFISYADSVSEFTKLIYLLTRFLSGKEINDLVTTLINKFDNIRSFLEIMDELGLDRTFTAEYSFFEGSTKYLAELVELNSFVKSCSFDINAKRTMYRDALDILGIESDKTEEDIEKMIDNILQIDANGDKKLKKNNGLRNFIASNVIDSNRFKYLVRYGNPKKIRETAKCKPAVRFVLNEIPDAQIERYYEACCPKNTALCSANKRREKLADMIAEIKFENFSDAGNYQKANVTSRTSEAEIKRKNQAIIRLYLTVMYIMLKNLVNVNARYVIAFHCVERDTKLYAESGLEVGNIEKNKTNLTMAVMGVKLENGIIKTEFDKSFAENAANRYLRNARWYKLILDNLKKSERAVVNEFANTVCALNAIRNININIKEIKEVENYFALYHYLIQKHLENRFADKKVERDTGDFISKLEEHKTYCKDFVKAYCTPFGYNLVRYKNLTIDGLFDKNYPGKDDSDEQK

B1: target 1 A16C,U19C (mixed)
RNA 1: CACCCGUGCAAAAAUGCAGGGGUCUAAAACUGAGCGGAUAACCUCUCUAUGG
RNA 2: GGGAAUGGAUCCACAUCUACGAAUUCGUACCACAGCGAGGUUAUCCGCUCACCGAGAUCGGAAGAGCACACGU
B2: target 1 A1G,U19C (mixed)
RNA 1: B1 RNA 1
RNA 2: B1 RNA 2 with C36A, A51G
B3: target 1 A1C (mixed)
RNA 1: B1 RNA 1
RNA 2: B1 RNA 2 with C33U, C36A, A51C
B4: target 1 U11A,C21A (mixed)
RNA 1: B1 RNA 1
RNA 2: B1 RNA 2 with C31A, C33U, C36A, U41A
B5: target 1 insC 3' of 10,insG 3' of 4 (mixed)
RNA 1: B1 RNA 1
RNA 2: GGGAAUGGAUCCACAUCUACGAAUUCGUACCAUAGAGAGGUUCAUCCGCGUCACCGAGAUCGGAAGAGCACACGU
B6: target 1 insA 3' of 22,insG 3' of 10 (mixed)
RNA 1: B1 RNA 1
RNA 2: GGGAAUGGAUCCACAUCUACGAAUUCGUACACAUAGAGAGGUUGAUCCGCUCACCGAGAUCGGAAGAGCACACGU
B7: target 1 MT (mixed)
RNA 1: B1 RNA 1
RNA 2: B1 RNA 2 with C33U, C36A
B8: target 1 C6G,U10G (mixed)
RNA 1: B1 RNA 1
RNA 2: B1 RNA 2 with C33U, C36A, U42G, C46G
B9: target 1 insA 3' of 22,insA 3' of 12 (mixed)
RNA 1: B1 RNA 1
RNA 2: B6 RNA 2 with U42A, G44U
B10: target 1 insC 3' of 18,insC 3' of 9 (mixed)
RNA 1: B1 RNA 1
RNA 2: B6 RNA 2 with A31C, C32A, A33U, U34A, A35C, G44A, A45C
B11: target 1 insU 3' of 13,insA 3' of 2 (mixed)
RNA 1: B1 RNA 1
RNA 2: B5 RNA 2 with G40U, U41G, C43U, G50U, U51C, C52A
B12: target 1 insC 3' of 1,insU 3' of 1 (mixed)
RNA 1: B1 RNA 1
RNA 2: B5 RNA 2 with C43A, A44U, U45C, C47G, G48C, C49U, G50C, U51A, A53U
B13: target 1 U19C (mixed)
RNA 1: B1 RNA 1
RNA 2: B1 RNA 2 with C36A
B14: target 1 insC 3' of 13,insG 3' of 7 (mixed)
RNA 1: B1 RNA 1
RNA 2: B5 RNA 2 with G40C, U41G, C43U, C47G, G48C, C49G, G50C
B15: target 1 U11C,C22U (mixed)
RNA 1: B1 RNA 1
RNA 2: B1 RNA 2 with C30U, C33U, C36A, U41C
B16: target 1 U10A,C22G (mixed)
RNA 1: B1 RNA 1
RNA 2: B1 RNA 2 with C30G, C33U, C36A, U42A
B17: target 1 insC 3' of 15,insA 3' of 8 (mixed)
RNA 1: B1 RNA 1
RNA 2: B5 RNA 2 with A38C, G39A, U41G, C43U, C46A, G48C, C49G, G50C
B18: target 1 C7A,U8G (mixed)
RNA 1: B1 RNA 1
RNA 2: B1 RNA 2 with C33U, C36A, U44G, C45A
B19: target 1 insC 3' of 11,insA 3' of 10 (mixed)
RNA 1: B1 RNA 1
RNA 2: B5 RNA 2 with U42C, C43U, U45A, C46U, G48C, C49G, G50C
B20: target 1 insA 3' of 15,insU 3' of 13 (mixed)
RNA 1: B1 RNA 1
RNA 2: B5 RNA 2 with G39A, U42G, C43U, A44U, U45A, C46U, G48C, C49G, G50C
B21: target 1 U8C,A20C (mixed)
RNA 1: B1 RNA 1
RNA 2: B1 RNA 2 with A32C, C33U, C36A, U44C
B22: target 1 A1G (mixed)
RNA 1: B1 RNA 1
RNA 2: B1 RNA 2 with C33U, C36A, A51G
B23: target 1 G15U,C22A (mixed)
RNA 1: B1 RNA 1
RNA 2: B1 RNA 2 with C30A, C33U, C36A, G37U
B24: target 1 insC 3' of 20,insU 3' of 13 (mixed)
RNA 1: B1 RNA 1
RNA 2: B6 RNA 2 with A31C, C32A, A33C, G41U, U42G, G44U
B25: target 1 insU 3' of 13,insG 3' of 1 (mixed)
RNA 1: B1 RNA 1
RNA 2: B5 RNA 2 with G40U, U41G, C43U, G50U, U51C, C52A, A53G
B26: target 1 insA 3' of 19,insG 3' of 9 (mixed)
RNA 1: B1 RNA 1
RNA 2: B6 RNA 2 with A31C, C32A, A33U, U34A, G44A, A45G
B27: target 1 U8G,A16G (mixed)
RNA 1: B1 RNA 1
RNA 2: B1 RNA 2 with C33U, C36G, U44G
B28: target 1 C2U,U19A (mixed)
RNA 1: B1 RNA 1
RNA 2: B1 RNA 2 with C33A, C36A, C50U
B29: target 1 A1U (mixed)
RNA 1: B1 RNA 1
RNA 2: B1 RNA 2 with C33U, C36A, A51U
B30: target 1 insU 3' of 13,insC 3' of 1 (mixed)
RNA 1: B1 RNA 1
RNA 2: B5 RNA 2 with G40U, U41G, C43U, G50U, U51C, C52A, A53C
B31: target 1 insA 3' of 21,insG 3' of 6 (mixed)
RNA 1: B1 RNA 1
RNA 2: B6 RNA 2 with A31C, C32A, G44A, A45U, U46C, C48G
B32: target 1 insA 3' of 10,insU 3' of 9 (mixed)
RNA 1: B1 RNA 1
RNA 2: B5 RNA 2 with C43A, C46U, G48C, C49G, G50C
B33: target 1 insC 3' of 17,insU 3' of 16 (mixed)
RNA 1: B1 RNA 1
RNA 2: GGGAAUGGAUCCACAUCUACGAAUUCGUACCAUAGCAUGAGGUUAUCCGCUCACCGAGAUCGGAAGAGCACACGU
B34: target 1 C6A,A18C (mixed)
RNA 1: B1 RNA 1
RNA 2: B1 RNA 2 with C33U, A34C, C36A, C46A
B35: target 1 U11C,A18U (mixed)
RNA 1: B1 RNA 1
RNA 2: B1 RNA 2 with C33U, A34U, C36A, U41C

The binders below were run against T1, EsCas13d, nuclease-dead (assay: crRNA (strand 1, pre-loaded); Mg2+; 40 mM Tris-HCl pH 7.5, 150 mM NaCl, 6 mM MgCl2, 1 mM DTT, 0.1% Tween-20, 0.2 mg/ml BSA; 25 C; 10 min per concentration, then washed). Settings: tags: His6-TwinStrep-SUMO cleaved; N-terminal SNAP kept (SNAP-Surface 488); label: 3' end held by stalled T7 RNA polymerase.
B1 showed a Kd of 94 ± 21 nM. Binder B2 has a Kd of 35 ± 5 nM. Work on B3 yielded a Kd of 24 ± 4 nM. Binder B4 has a Kd of 64 ± 24 nM. B5 was tested, and the Kd was 8.6 ± 0.4 nM. B6 gave a Kd of 55 ± 13 nM. B7 gave a Kd of 8.62 ± 0.06 nM. With B8 the Kd was 15.2 ± 0.9 nM. For B9, the Kd was 47 ± 8 nM. B10 gave a Kd of 58 ± 8 nM. B11 was tested, and the Kd was 16.2 ± 1.8 nM. B12 showed a Kd of 10 ± 0.4 nM. B13 was tested, and the Kd was 21 ± 1.3 nM. Binder B14 has a Kd of 16.1 ± 1 nM. Work on B15 yielded a Kd of 21.2 ± 1.7 nM. For B16, the Kd was 76 ± 25 nM. With B17 the Kd was 20.1 ± 2.1 nM. B18 was tested, and the Kd was 9.8 ± 1.1 nM. Work on B19 yielded a Kd of 30 ± 4 nM. Binder B20 has a Kd of 19 ± 4 nM. With B21 the Kd was 65 ± 7 nM. For B22, the Kd was 8.6 ± 0.7 nM. Work on B23 yielded a Kd of 40 ± 6 nM. With B24 the Kd was 6.9 ± 0.7 nM. In the case of B25, the Kd is reported as 11.7 ± 1.7 nM. B26 showed a Kd of 37 ± 4 nM. Work on B27 yielded a Kd of 39.4 ± 3.5 nM. In the case of B28, the Kd is reported as 26.5 ± 2.9 nM. B29 gave a Kd of 8.5 ± 0.6 nM. With B30 the Kd was 21 ± 4 nM. Work on B31 yielded a Kd of 22.1 ± 2.3 nM. In the case of B32, the Kd is reported as 13.9 ± 0.5 nM. In the case of B33, the Kd is reported as 40 ± 6 nM. In the case of B34, the Kd is reported as 54 ± 4 nM. B35 showed a Kd of 45 ± 6 nM.
